Laboratory results as given in patent US20250215104A1 (WALDEN BIOSCIENCES, published 2025).

T1: mouse cell surface uPAR (muPAR) (mouse, UniProt P35456 24-298)
T1 construct: whole, on cells; also called mouse uPAR
T1 sequence (looked up): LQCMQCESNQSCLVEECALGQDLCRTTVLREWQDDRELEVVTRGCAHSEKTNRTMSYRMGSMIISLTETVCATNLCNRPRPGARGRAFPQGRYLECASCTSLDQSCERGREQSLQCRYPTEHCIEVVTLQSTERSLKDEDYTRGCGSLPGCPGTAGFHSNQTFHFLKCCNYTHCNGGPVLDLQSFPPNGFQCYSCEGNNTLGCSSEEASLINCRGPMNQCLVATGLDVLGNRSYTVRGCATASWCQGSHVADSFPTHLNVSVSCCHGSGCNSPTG

B1: WAb0014 (antibody, human IgG1)
heavy: not shown
light: DIQMTQSPSSLSASVGDRVTITCSARQSVSYMYWYQQKPGKAPKLLIYRTSNLASGVPSRFSGSGSGTDFTLTISSLQPEDFATYYCQQYHSYPPTFGGGTKVEIKRTVAAPSVFIFPPSDEQLKSGTASVVCLLNNFYPREAKVQWKVDNALQSGNSQESVTEQDSKDSTYSLSSTLTLSKADYEKHKVYACEVTHQGLSSPVTKSFNRGEC
notes: human kappa; also called initial anti-suPAR antibody; original candidate; copies: 2 + 2
B2: WAL0921-ΔK (antibody)
heavy: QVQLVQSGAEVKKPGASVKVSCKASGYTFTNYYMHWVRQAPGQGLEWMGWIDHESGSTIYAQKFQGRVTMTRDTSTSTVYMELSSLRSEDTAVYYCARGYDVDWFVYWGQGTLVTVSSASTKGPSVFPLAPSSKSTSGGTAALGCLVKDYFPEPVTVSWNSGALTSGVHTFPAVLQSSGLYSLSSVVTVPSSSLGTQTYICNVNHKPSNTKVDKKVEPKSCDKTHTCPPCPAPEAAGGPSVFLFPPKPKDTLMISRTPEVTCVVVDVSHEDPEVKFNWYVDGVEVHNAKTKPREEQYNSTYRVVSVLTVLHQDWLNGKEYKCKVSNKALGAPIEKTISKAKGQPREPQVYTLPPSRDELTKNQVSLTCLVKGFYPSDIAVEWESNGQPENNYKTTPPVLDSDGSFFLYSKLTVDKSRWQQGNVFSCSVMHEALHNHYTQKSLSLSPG
light: B1 light
notes: Same as WAL0921 but without the C-terminal lysine of the heavy chain (K448 of the whole heavy chain); also called WAL0921 without K448

Key:
[1] = target: T1, mouse cell surface uPAR (muPAR); assay: flow cytometry on undifferentiated mouse podocytes, FITC secondary antibody
Description: Gene expression of mouse uPAR in undifferentiated mouse podocyte cells was undertaken using commercial gene specific qPCR probes for mouse and human uPAR and normalized to 18S housekeeping gene expression using manufacturers RT-qPCR protocol (Thermofisher). Separately, mouse podocytes were incubated with 100 μg/mL concentration of anti-hsuPAR and Proteintech positive control anti-mouse uPAR antibodies at 4° C. for 1 hr. After 2 cycles of wash to remove any unbound antibody, cells were incubated with 10 μg/mL of a goat-anti-human-FITC or goat-anti-mouse-FITC or goat-anti-rabbit-FITC conjugated secondary antibody for 1 hr at 4° C. After washing any unbound secondary antibody, cell suspensions for each sample was gated for single cells and population mean fluorescence intensity was recorded and analyzed on a Luminex Flowsight flow cytometer. Mean fluorescence intensity for test samples was plotted in GraphPad Prism software and compared to positive control sample data.

[2] = target: T2, human suPAR (hsuPAR) recombinant protein (human, UniProt Q03405 23-303); assay: BLI (Octet Red96E), hsuPAR immobilized on streptavidin sensor, WAb0014 as analyte
T2 construct: it is written here as the same molecule; also called recombinant hsuPAR
Description: (§1) Analyte global association (kₐ) and disassociation […] rates were calculated using in-built functions to determine binding affinity (KD)

[3] = target: T3, cynomolgus suPAR (cynomolgus, UniProt Q9GK78 23-303, limits assumed); assay: BLI (Octet Red 96E), antibody immobilized
T3 construct: also called Cynomolgus suPAR isoform protein; cynomolgus uPAR
Text: Recombinantly expressed proteins for hsuPAR isoform 1-D2D3 fragment and hsuPAR-3 isoforms were custom generated in HEK or CHO cells and purified by Genscript from the known amino-acid sequence of hsuPAR-1 and hsuPAR-3 respectively. Cynomolgus suPAR isoform protein was commercially obtained from Creative Biomart.

[4] = target: T4, cell surface human uPAR (huPAR) (human, UniProt Q03405 23-305); assay: flow cytometry on human podocytes, FITC secondary antibody, MFI against concentration
T4 construct: whole, on cells; also called cell surface huPAR; cell surface uPAR
Description: After 2 cycles of wash to remove any unbound antibody, cells were incubated with 10 μg/mL of a goat-anti-human-FITC conjugated secondary antibody for 1 hr at 4° C.

[5] = target: T5, human neonatal FcRn receptor (hFcRn), biotinylated (human, UniProt P55899 24-297, biotinylated (site not stated)); assay: BLI (Octet Red96E), biotinylated hFcRn on SA sensor, WAb0014 as analyte, acidic conditions (pH 6)
T5 construct: also called FcRn receptors; neonatal FcRn receptors
Description: Biotinylated hFcRn protein was sourced from Acro Biosystems and immobilized on a SA biosensor. […] Binding affinity (KD, nM) was calculated from the response rate constants as described above.

[6] = target: T2, human suPAR (hsuPAR) recombinant protein; assay: BLI (Octet Red96E), WAb0014 immobilized on AHC sensor, hsuPAR as analyte
Description: as §1

[7] = target: T6, Fc-gammaR1 receptor recombinant protein, biotinylated (Homo sapiens (Human), UniProt P12314 16-292, Biotinylated for capture on the sensor; the site of biotin is not stated in the passages seen.); assay: BLI (Octet Red96E), biotinylated Fc-gammaR1 on streptavidin sensor, antibody as analyte
T6 construct: also called Fc-gammaR1 isoform
Description: Antibody induced immune response is known to be mediated by interaction with Fc-gamma receptors. Immunologic response potential of WAL0921-ΔK was assessed biophysically on an Octet Red96E platform by measuring the binding affinity to Fc-gammaR1, high affinity Fc-gammaR2a and high affinity Fc-gammaR3a receptor recombinant proteins.
Biotinylated Fc-gamma proteins were procured from Acro Biosystems and immobilized on a streptavidin biosensor. Increasing concentrations of analyte WAL0921-ΔK were then applied, and responses measured. Binding affinity (KD, nM) was calculated from the response rate constants as described above.

T2 sequence (Q03405 23-303): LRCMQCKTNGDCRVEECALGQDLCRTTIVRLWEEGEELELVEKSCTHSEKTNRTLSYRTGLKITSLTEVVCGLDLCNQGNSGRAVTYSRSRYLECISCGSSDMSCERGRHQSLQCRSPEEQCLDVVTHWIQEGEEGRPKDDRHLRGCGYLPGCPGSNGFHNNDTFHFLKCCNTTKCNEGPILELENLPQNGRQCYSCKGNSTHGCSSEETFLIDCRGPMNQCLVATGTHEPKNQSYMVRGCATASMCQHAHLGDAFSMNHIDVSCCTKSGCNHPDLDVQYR
T3 sequence (Q9GK78 23-303 limits assumed): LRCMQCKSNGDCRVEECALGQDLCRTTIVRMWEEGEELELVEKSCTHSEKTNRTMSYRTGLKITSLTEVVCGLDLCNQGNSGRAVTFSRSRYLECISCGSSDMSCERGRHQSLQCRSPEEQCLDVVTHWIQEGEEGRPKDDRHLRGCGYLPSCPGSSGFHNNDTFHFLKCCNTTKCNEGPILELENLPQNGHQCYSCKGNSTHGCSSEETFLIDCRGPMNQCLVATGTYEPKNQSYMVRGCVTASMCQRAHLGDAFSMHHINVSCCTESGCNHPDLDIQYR
T4 sequence (Q03405 23-305): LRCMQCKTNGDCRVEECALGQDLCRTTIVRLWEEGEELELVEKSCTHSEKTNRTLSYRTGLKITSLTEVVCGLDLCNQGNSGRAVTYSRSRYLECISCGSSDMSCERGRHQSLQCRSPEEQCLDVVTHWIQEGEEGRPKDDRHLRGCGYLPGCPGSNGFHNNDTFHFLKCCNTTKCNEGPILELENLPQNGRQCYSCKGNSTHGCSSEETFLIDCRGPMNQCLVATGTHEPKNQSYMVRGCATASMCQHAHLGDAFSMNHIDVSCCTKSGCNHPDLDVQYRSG
T5 sequence (P55899 24-297 limits assumed, form in doubt): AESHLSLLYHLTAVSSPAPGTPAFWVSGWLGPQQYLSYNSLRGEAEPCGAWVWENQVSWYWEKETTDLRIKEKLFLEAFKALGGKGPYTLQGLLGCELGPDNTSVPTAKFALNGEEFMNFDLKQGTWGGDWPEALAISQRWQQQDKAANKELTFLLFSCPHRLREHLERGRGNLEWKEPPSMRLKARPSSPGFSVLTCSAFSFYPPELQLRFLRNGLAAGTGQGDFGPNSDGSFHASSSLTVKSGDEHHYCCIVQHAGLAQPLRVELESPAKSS
T6 sequence (P12314 16-292 limits assumed, form in doubt): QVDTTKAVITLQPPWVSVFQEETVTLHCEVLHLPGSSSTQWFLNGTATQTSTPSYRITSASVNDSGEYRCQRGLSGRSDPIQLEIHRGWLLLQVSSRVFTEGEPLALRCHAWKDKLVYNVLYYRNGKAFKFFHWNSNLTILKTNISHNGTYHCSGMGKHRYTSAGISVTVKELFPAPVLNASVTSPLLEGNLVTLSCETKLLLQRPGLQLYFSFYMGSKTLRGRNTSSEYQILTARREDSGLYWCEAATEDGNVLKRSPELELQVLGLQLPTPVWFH

| binding result [1] | Kd [2] | Kd [3] | Kd [4] | Kd [5] | Kd [6] | Kd [7] | Binder |
| --- | --- | --- | --- | --- | --- | --- | --- |
| no binding (tested: 100 µg/mL) | < 0.1 nM | 10.5 nM | 1 to 3 nM | 0.025 nM | 0.69 to 2 nM |  | B1 |
|  |  |  |  |  |  | 1750 nM | B2 |
